# Publication PMC9854251
# Where a chain is given by its changes, count along the chain named. In names and notes the source's numbering stands.
# B1: hHINT1 Q62A (Homo sapiens; Q62A) (protein)
# chain: MADEIAKAQVARPGGDTIFGKIIRKEIPAKIIFEDDRCLAFHDISPQAPTHFLVIPKKHISAISVAEDDDESLLGHLMIVGKKCAADLGLNKGYRMVVNEGSDGGQSVYHVHLHVLGGRQMHWPPG
# B2: hHINT1 Q62R (Homo sapiens; Q62R) (protein)
# chain: B1 chain with A62R
# B3: hHINT2 WT (Homo sapiens) (protein)
# chain: GNEVAKAQQATPGGAAPTIFSRILDKSLPADILYEDQQCLVFRDVAPQAPVHFLVIPKKPIPRISQAEEEDQQLLGHLLLVAKQTAKAEGLGDGYRLVINDGKLGAQSVYHLHIHVLGGRQLQWPPG
# B4: hHINT2 R99A (Homo sapiens; R99A) (protein)
# chain: B3 chain with R63A
# B5: hHINT2 R99Q (Homo sapiens; R99Q) (protein)
# chain: B3 chain with R63Q
# Substrate: Nc1ncnc2c1ncn2[C@@H]1O[C@H](COP(=O)(O)NCCc2c[nH]c3ccccc23)[C@@H](O)[C@H]1O
# Assay: Steady-state kinetics assay
# Assay type: biochemical, human
# Conditions: other: steady-state 25 °C, pH 7.2
protein,measurement,setting,value
B1,Km,hHINT1 Q62A,0.015 ± 0.003 µM
same,kcat,hHINT1 Q62A,0.45 ± 0.02 s⁻¹
same,kcat/Km,hHINT1 Q62A,2.8e+07 ± 4e+06 M⁻¹ s⁻¹
B2,Km,hHINT1 Q62R,0.136 ± 0.03 µM
same,kcat,hHINT1 Q62R,1.4 ± 0.09 s⁻¹
same,kcat/Km,hHINT1 Q62R,1.1e+07 ± 2.4e+06 M⁻¹ s⁻¹
B3,Km,hHINT2 WT,0.91 ± 0.098 µM
same,kcat,hHINT2 WT,5.77 ± 0.34 s⁻¹
same,kcat/Km,hHINT2 WT,6.3e+06 ± 1e+06 M⁻¹ s⁻¹
B4,Km,hHINT2 R99A,0.683 ± 0.042 µM
same,kcat,hHINT2 R99A,2.65 ± 0.19 s⁻¹
same,kcat/Km,hHINT2 R99A,3.88e+06 ± 810000 M⁻¹ s⁻¹
B5,Km,hHINT2 R99Q,0.84 ± 0.155 µM
same,kcat,hHINT2 R99Q,6.01 ± 0.26 s⁻¹
same,kcat/Km,hHINT2 R99Q,7.2e+06 ± 1.1e+06 M⁻¹ s⁻¹
